# Data from publication PMC12393501, “Recruitment of Mre11 to recombination sites during meiosis” (Research Square, 2025).
# B1: HisSUMO-tagged Mer2 [S. cerevisiae] / MBP-tagged Mre11-C49 peptide [S. cerevisiae] (parent)
# chain 1: SYGLLNGRKTKTKTRPAASTKTASRRGKGRASRTPKTDILGSLLAKKRK
# chain 2: MVARGRTDEISTDVSEANSEHSLMITETSSPFRSIFSHSGKVANAGALEESDKQILEWAGKLELESMELRENSDKLIKVLNENSKTLCKSLNKFNQLLEQDAATNGNVKTLIKDLASQIENQLDKVSTAMLSKGDEKKTKSDSSYRQVLVEEISRYNSKITRHVTNKQHETEKSMRCTQEMLFNVGSQLEDVHKVLLSLSKDMHSLQTRQTALEMAFREKADHAYDRPDVSLNGTTLLHDMDEAHDKQRKKSVPPPRMMVTRSMKRRRSSSPTLSTSQNHNSEDNDDASHRLKRAARTIIPWEELRPDTLESEL
# Variants of: B1
# Test: co-expression Ni-NTA pulldown, anti-MBP immunoblot quantification
# Conditions: with MBP-tagged Mre11-C49 peptide [S. cerevisiae]; co-expressed in E. coli; at least seven independent samples; parent: 1; read off a plot
row,Variant,ratio to parent
1,chain 2 MVARGRTDEISTDVSEANSEHSLMITETSSPFRSIFSHSGKVANAGALEASDKAILAWAGALELESMELRENSDKLIKVLNENSKTLCKSLNKFNQLLEQDAATNGNVKTLIKDLASQIENQLDKVSTAMLSKGDEKKTKSDSSYRQVLVEEISRYNSKITRHVTNKQHETEKSMRCTQEMLFNVGSQLEDVHKVLLSLSKDMHSLQTRQTALEMAFREKADHAYDRPDVSLNGTTLLHDMDEAHDKQRKKSVPPPRMMVTRSMKRRRSSSPTLSTSQNHNSEDNDDASHRLKRAARTIIPWEELRPDTLESEL [chain 2 E50A Q54A E57A K61A],0.27
